The source of these data is PMC5379955.

This assay addresses ROD (human) (UniProt P50748). The assay is described as follows: AUC.

The substance ROD, P50748 1-2209 returned a stoichiometry N of 2.
